Results: paper PMC8081665, “Structural and biochemical mechanisms of NLRP1 inhibition by DPP9” (Nature, 2021)
Like-named read-outs stand apart in the source and are kept apart here.

Tests used:
rat DPP9 (rat) [1] = assay: cryo-EM structure; purified complex after gel filtration, about 0.3 mg/ml in 25 mM Tris-HCl pH 8.0, 150 mM NaCl, 3 mM DTT; Titan Krios 300 kV
[2] = target: GST–rNLRP1 FIIND(S969A) (rat) (UniProt D9I2G3); assay: SEC; Superose 6 10/30, 10 mM Tris pH 8.0, 100 mM NaCl; purified GST–rNLRP1 FIIND(S969A)–rDPP9 complex incubated with fully processed rNLRP1 FIIND at a molar ratio of about 1:1 at 4 °C for 150 min
rat DPP9 (rat) [3] = assay: cryo-EM structure; purified complex after gel filtration, about 0.3 mg/ml in 25 mM Tris-HCl pH 8.0, 150 mM NaCl, 3 mM DTT; Titan Krios 300 kV; remark: listed apart in the source
Target sequence in this assay (Q8BVG4 other isoform, or with tags, fused parts or gaps): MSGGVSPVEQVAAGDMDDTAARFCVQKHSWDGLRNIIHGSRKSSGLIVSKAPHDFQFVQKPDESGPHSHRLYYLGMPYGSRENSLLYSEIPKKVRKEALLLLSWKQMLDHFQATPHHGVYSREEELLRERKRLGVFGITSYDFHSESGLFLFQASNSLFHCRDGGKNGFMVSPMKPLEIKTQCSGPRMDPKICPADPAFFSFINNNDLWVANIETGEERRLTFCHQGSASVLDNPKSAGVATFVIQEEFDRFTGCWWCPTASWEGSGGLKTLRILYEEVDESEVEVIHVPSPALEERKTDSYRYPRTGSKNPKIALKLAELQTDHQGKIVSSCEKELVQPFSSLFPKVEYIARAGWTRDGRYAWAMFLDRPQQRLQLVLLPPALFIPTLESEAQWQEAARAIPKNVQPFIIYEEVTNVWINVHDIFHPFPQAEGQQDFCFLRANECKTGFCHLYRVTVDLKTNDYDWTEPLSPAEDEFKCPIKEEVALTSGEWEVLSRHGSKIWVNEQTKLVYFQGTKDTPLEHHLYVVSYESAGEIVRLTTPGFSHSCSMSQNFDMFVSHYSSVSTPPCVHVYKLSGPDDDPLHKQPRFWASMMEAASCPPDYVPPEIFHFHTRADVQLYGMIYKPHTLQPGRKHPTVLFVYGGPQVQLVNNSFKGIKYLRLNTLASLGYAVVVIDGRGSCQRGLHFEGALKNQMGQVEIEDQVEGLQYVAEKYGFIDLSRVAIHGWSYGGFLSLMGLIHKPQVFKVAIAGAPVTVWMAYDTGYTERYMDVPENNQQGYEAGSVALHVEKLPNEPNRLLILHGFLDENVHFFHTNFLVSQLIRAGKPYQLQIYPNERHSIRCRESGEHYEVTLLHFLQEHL

[4] = target: the molecule itself; assay: as above
[5] = target: T1, UPA subdomain of the autocleaved rNLRP1 FIIND (rat, UniProt D9I2G3 969-1122); assay: crystal structure; rNLRP1 FIIND at 8 mg/ml, hanging drop at 18 °C, 1.0 M ammonium sulfate, 0.1 M Bis-Tris pH 5.5, 1% PEG 3,350; conditions: both partners purified
T1 construct: rat NLRP1, from S969, the residue after the autocleavage site, to the end of the FIIND construct (1122); source: sf21 insect cells, purified; product of the autocleavage of rNLRP1 FIIND (822-1122)
T1 sequence (looked up): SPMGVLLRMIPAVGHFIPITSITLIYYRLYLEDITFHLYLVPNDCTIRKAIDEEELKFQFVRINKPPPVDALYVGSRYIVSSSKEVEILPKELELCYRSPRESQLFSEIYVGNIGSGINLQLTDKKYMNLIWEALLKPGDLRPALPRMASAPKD

In the case of rat DPP9 (enzyme), the stoichiometry N (rat DPP9 (rat) [1]) is reported as 2 and the stoichiometry N [2] is reported as 1.

B1: full-length rat NLRP1 (natural protein, UniProt D9I2G3 1-1218, looked up)
chain: MEESQSKQESNTRVAQHGSQQDVDPTFQTKRALEKERSKPRPRPLPRVQLQSLPGWSSTSKDVPLSQLIREMDHESRRCIHRSKKKLDRSEHISQGTIPEIYEKRKETISHTQSMEQKYLFQNFTKLLLLQKCCPGGSEKLVRESWHPCVPEEGGHMIEIQDLFDPNLDTEKKPQLVIIEGAAGIGKSTLARQVKRAWDEGQLYRDRFQHVFFFSCRELAQCKQLSLAELIAQGQEVPTAPTRQILSRPEKLLFILDGIDEPAWVLEDQNPELCVHWSQAQPVHTLLGSLLGKSILPEASLMLTARTTALQKLVPSLGQPHRVEVLGFSEFERKDYFYKYFAKERNTIIDFNLIGSIPVLLTLCEVPWVCWLLCTCLEKQMQQGEVLSLTSQTTTALCLKYLSLTIPGQHLSTQLRTLCSLAAEGICQRRTLFSKSDLCKQGLAEDAIATFLKIGVLQRQPSSLSYSFAHLCLQEFFAAMSYILEDSEEAHGDMGNDRTVETLVERYGRQNLFEAPTVRFLLGLLNTREMREMENIFACKFPWETKLKLLQSIIGEPFCQPCHLGLFHCLYENQEEELLTETMLCFPLTASGPNHMEATVFQTNVKRLVIQTDMELMVVTFCITFSHVRSLRLKGKGQQEYKLTAPAMVLYRWTPISEASWKVLFSNLKCTRNLEELDLSGNPLSYSAVRSLCTALRQPGCRLKTLWLVDCGLTSRCCSFLASMLSAHSRLAELDLRLNDLGDNGVRQLCEGLRNPACNLSILRLDQASLSEQVITELRALETKNPKLFISSTWMSHMTMPTENTDGEESLTSSKQQQQQSGDKHMEPLGTDDDFWGPSGPVSTEVVDRERNLYRVRLPMAGSYHCPSTGLHFVVTRAVTIEIGFCAWSQFLHETPLQHSHMVAGPLFDIKAEHGAVTAVCLPHFVSLQEGKVDSSLFHVAHFQDHGMVLETPARVEPHFAVLENPSFSPMGVLLRMIPAVGHFIPITSITLIYYRLYLEDITFHLYLVPNDCTIRKAIDEEELKFQFVRINKPPPVDALYVGSRYIVSSSKEVEILPKELELCYRSPRESQLFSEIYVGNIGSGINLQLTDKKYMNLIWEALLKPGDLRPALPRMASAPKDAPALLHFVDQHREQLVARVTSVDPLLDKLHGLVLSEEDYETVRAEATNQDKMRKLFRGSRSWSWDCKDHFYQALKETHPHLIMDLLEKSGGVSVRL
notes: rat NLRP1, residues 1-1218, gene synthesized from GenBank HM060632.1; Autocleaves in the FIIND between F968 and S969; of the second copy only UPA is seen, and the abstract calls it a UPA-CARD fragment; also called rNLRP1; full-length rNLRP1; source: sf21 insect cells (baculovirus), co-expressed with rDPP9, purified (GS4B, PreScission, gel filtration); not shown: GST, N-terminal, cleaved
B1 was tested, and the stoichiometry N (rat DPP9 (rat) [3]) was 2 and the binding result [4] was “binds”.

B2: rNLRP1 FIIND–CARD(S969A) (domain or fragment)
chain: GDKHMEPLGTDDDFWGPSGPVSTEVVDRERNLYRVRLPMAGSYHCPSTGLHFVVTRAVTIEIGFCAWSQFLHETPLQHSHMVAGPLFDIKAEHGAVTAVCLPHFVSLQEGKVDSSLFHVAHFQDHGMVLETPARVEPHFAVLENPSFAPMGVLLRMIPAVGHFIPITSITLIYYRLYLEDITFHLYLVPNDCTIRKAIDEEELKFQFVRINKPPPVDALYVGSRYIVSSSKEVEILPKELELCYRSPRESQLFSEIYVGNIGSGINLQLTDKKYMNLIWEALLKPGDLRPALPRMASAPKDAPALLHFVDQHREQLVARVTSVDPLLDKLHGLVLSEEDYETVRAEATNQDKMRKLFRGSRSWSWDCKDHFYQALKETHPHLIMDLLEKSGGVSVRL
Work on B2 yielded a stoichiometry N (rat DPP9 (rat) [3]) of 1.

B3: ZU5 subdomain of the autocleaved rNLRP1 FIIND (domain or fragment, rat, UniProt D9I2G3 822-968, looked up)
chain: GDKHMEPLGTDDDFWGPSGPVSTEVVDRERNLYRVRLPMAGSYHCPSTGLHFVVTRAVTIEIGFCAWSQFLHETPLQHSHMVAGPLFDIKAEHGAVTAVCLPHFVSLQEGKVDSSLFHVAHFQDHGMVLETPARVEPHFAVLENPSF
notes: rat NLRP1, from the start of the FIIND construct (822) to F968, the residue before the autocleavage site; source: sf21 insect cells, purified; product of the autocleavage of rNLRP1 FIIND (822-1122); not shown: GST, N-terminal, cleaved
B3: binds [5].
